# Reference: article PMC5893371 (Nature medicine, 2018)
# Like-named read-outs stand apart in the source and are kept apart here. No end group written: not given here.
# T1: PfCSP peptide 25 (Plasmodium falciparum, UniProt Q7K740, position 102 (from Pro to Val))
# T1 chain: NVDPNANPNVDPNAN
# T2: biotinylated peptide 21 (Plasmodium falciparum, also: biotin, position not given here)
# T2 chain: NPDPNANPNVDPNAN
# T3: PfCSP peptide 20 (Plasmodium falciparum)
# T3 chain: PADGNPDPNANPNVD
# B1: mAb CIS43 (antibody, V domains shown)
# VH: QVQLVQSGAEVKKPGASVKVSCKASGYTFTSYAIHWVRQAPGQRLEWMGWIKAGNGNTRYSQKFQDRVTITRDTSTTTAYMELSSLRSEDTAVYYCALLTVLTPDDAFDIWGQGTMVTVSS
# VL: not shown
# B2: CIS43 Fab (Fab, V domains shown)
# VH: QVQLVQSGAEVKKPGASVKVSCKASGYTFTSYAIHWVRQAPGQRLEWMGWIKAGNGNTRYSQKFQDRVTITRDTSTTTAYMELSSLRSEDTAVYYCALLTVLTPDDAFDIWGQGTMVTVSS
# VL: not shown
# B3: mAb CIS42 (antibody, V domains shown)
# VH: QVQLVQSGSELKKPGASVKVSCKTSGYTFTTYAMNWVRQAPGQGLEWMGWINTNTGNPTYAPGFTGRFVFSFDTSVSTAYLQISSLKAEDTAVYYCARVYSYGVPFDYWGQGTLVTVSS
# VL: QSVLTQPASVSGSPGQSITISCTATSSNVGSFNLVSWYQHHPGKAPKLIIHEVSKRPSGASNRFSGSKSGNTASLTISGLQAEDEADYYCCSYVGSDTWVFGGGTKLTV
# B4: CIS42 Fab (Fab, V domains shown)
# VH: QVQLVQSGSELKKPGASVKVSCKTSGYTFTTYAMNWVRQAPGQGLEWMGWINTNTGNPTYAPGFTGRFVFSFDTSVSTAYLQISSLKAEDTAVYYCARVYSYGVPFDYWGQGTLVTVSS
# VL: QSVLTQPASVSGSPGQSITISCTATSSNVGSFNLVSWYQHHPGKAPKLIIHEVSKRPSGASNRFSGSKSGNTASLTISGLQAEDEADYYCCSYVGSDTWVFGGGTKLTV
# Tests used:
# PfCSP peptide 25 [1] = molecular target: T1, PfCSP peptide 25; experiment: ELISA
# biotinylated peptide 21 = molecular target: T2, biotinylated peptide 21; experiment: BLI
# [2] = molecular target: recombinant PfCSP (rPfCSP), Plasmodium falciparum circumsporozoite protein residues 21-375 (Plasmodium falciparum 3D7 (clone of …, UniProt Q7K740)); experiment: ITC
# PfCSP peptide 20 [3] = molecular target: T3, PfCSP peptide 20; experiment: crystal structure
# PfCSP peptide 25 [4] = molecular target: T1, PfCSP peptide 25; experiment: crystal structure
# PfCSP peptide 20 [5] = molecular target: T3, PfCSP peptide 20; experiment: crystal structure
# PfCSP peptide 25 [6] = molecular target: T1, PfCSP peptide 25; experiment: crystal structure
binder,measurement,setting,value
B1,binding result,PfCSP peptide 25 [1],binds
same,Kd,biotinylated peptide 21,< 0.001 nM
same,KD of the first binding event,[2],7.9 nM
same,KD of the second binding event,[2],42 nM
B2,binding result,PfCSP peptide 20 [3],binds
same,binding result,PfCSP peptide 25 [4],binds
same,KD of the first binding event,[2],16 nM
same,KD of the second binding event,[2],250 nM
B3,Kd,[2],51 nM
same,stoichiometry N,[2],7
B4,binding result,PfCSP peptide 20 [5],binds
same,binding result,PfCSP peptide 25 [6],binds
